± gives the uncertainty stated by the source.

The data set in a line: amyloid nucleation score (Sup35N fusion, yeast selection) (log enrichment); library NNK1; higher = more nucleation; inactive = no reads after selection. An outline of the steps:
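For the nucleation score, DiMSum gave the log enrichment of output over input reads, centred on the mode score of non-aggregating sequences. Psi-negative yeast expressing Sup35N fused to peptides of 20 random codons were induced with 100 μM copper sulfate for 24 hours and grown 7 days at 30°C on medium lacking adenine and uracil. Input and output plasmid inserts were Illumina-sequenced, and sequences with under 100 input reads were excluded.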
On to IRGLRVLHSVFLALLVCKNL, for which the amyloid nucleation score was -0.136 ± 0.59.
With ARPFRRCYSKADAWGVQQVG the figure was 0.556 ± 0.79.
Next, IKLNTEALESYLLVFRMKRW: -0.605 ± 0.46.
Next, DRFLCGWSLPSC: -0.656 ± 0.61; LTYLWFT: -0.095 ± 0.27; QFMGCRFKLSDSSIWKKSLR: 0.381 ± 0.64.
DVMRYWVMRVVMPAKFKKAY showed an amyloid nucleation score of -0.244 ± 1.1.
Next, VKTISCYMWFNVFN: 7.81 ± 0.05.
With HIVNCVKML the figure was 0.788 ± 0.63; with VHWRASCNMQLRADQRICIL, -0.84 ± 0.49.
Next, SHRWWIM: -0.597 ± 1.1.
HWCCIKSVGCIWIRKSVTRC came in with an amyloid nucleation score of 0.204 ± 0.43.
With VVSYISPATLRTLKLEKGLS the figure was 0.029 ± 0.76; with HIPYVYGPIIRGEATYTEGV, -0.29 ± 1.2; with GFRLMLFVRTM, 1.04 ± 0.45.
Next, NMCFYELDGYMLGNYLARQF: -1.51 ± 1.3; VRNKMGSRSYSTS: -1.65 ± 2.7; FVSVWDILL: -0.049 ± 0.27.
Next, FLGTI: -1.08 ± 2.7; SSERGTWIMVARVQSVTNNV: “inactive”; GVYARQIFYNS: 0.021 ± 0.24.
The substance WRYRRCSYY returned an amyloid nucleation score of 0.781 ± 0.47.
Next, YYDYGEYIIKGVLPWIRGFY: 0.513 ± 0.31.
The substance WLIVIGMGRLGIVIMLGGLK gave an amyloid nucleation score of 0.723 ± 0.44.
As to GGCMV, the amyloid nucleation score came to 0.493 ± 0.42.
With VQNKYRFTLY, the amyloid nucleation score was 1.65 ± 0.33.
Next, CEAMVLKGCAEAVQYRATDS: -0.23 ± 1.1.
With TRYGECAGWSGPYIADSGSA the figure was -0.001 ± 0.31.
Next, FNISFCIASSYVNTIGKQQG: 3.32 ± 0.12; LVDSNFCVNVCAGQSRRVYG: -0.712 ± 0.8.
VSFLASMLRIGMCLPKQVMW registered an amyloid nucleation score of 0.183 ± 0.8.
Next, FVIFSIELCGHRATSSSFNL: 5.565 ± 0.047; LMDAEFIMVFTL: 0.918 ± 0.2; HDPDPVDYGCGWVSVSCGVA: 0.819 ± 0.82.
With VLKHFGFCMLPNISAY, the amyloid nucleation score was found to be 0.386 ± 0.4.
With GREVGYVKLMDRPWPYRPAE the figure was 0.191 ± 0.44; with NGVRYTVRLFMVLWR, -1.58 ± 2.4; with LESRFRKMFPRVVRDTWGRG, -0.628 ± 1.7.
Next, VGNMYYGSTSHNDT: -1.48 ± 1.7; EVASGVCTRIRLYSRCEWKG: 2.84 ± 0.091.
With GKMMVFRVFFRFVPSESWVI the figure was -0.638 ± 0.52; with GYNWGFVHCSYRSSHFGSGF, 0.348 ± 0.26; with LFTIMMQPMGCHPCRPLASQ, 0.082 ± 0.52.
Substance VNSSKFKRVIYLV had an amyloid nucleation score of -0.453 ± 0.27.
With GLRWYQFEPTQG the figure was 0.126 ± 0.38; with ACKCAFSGFSYVAFGPVMGG, -1.61 ± 1.9.
For RVNYIHD, the amyloid nucleation score was -0.057 ± 0.46.
IRANLEDVLHIFIPVEGHSR registered an amyloid nucleation score of -0.655 ± 1.1.
With YILVYSSVTRRYHKSRSYVG the figure was -0.09 ± 0.29.
HSVSRCLVNEGNGFSFCKDP: the amyloid nucleation score turned out to be 1.45 ± 0.39.
Substance VCRVMTSLNEGKLSAECVLV displayed an amyloid nucleation score of 0.594 ± 0.32.
For EMGSSLYTRHGNVRSLAFGW, the amyloid nucleation score is 0.242 ± 0.48.
With PIYGFCSIALGSMLIIPRLL the figure was -1.05 ± 0.77; with LMTLLSSLSPAQSSLPT, 1.27 ± 0.8.
As to ETSPF, the amyloid nucleation score was -0.03 ± 0.76.
Next, SMKWSLYLQCRIMYIQTDSR: 3.21 ± 0.12; VFSVAGASCCRRIGSCWLLR: 0.687 ± 0.97; FLMFQGSYIYRNTGFYSSSD: -0.176 ± 0.95.
For the substance SNSRFMLHGWAGIWFIWSWG, the amyloid nucleation score came out at 0.124 ± 0.5.
With ERFLFGSMSTYANGRCVGAY the figure was -1.11 ± 2.4.
With YDRNCFGAPFNSVVQVTGKS the figure was -0.94 ± 1.
With ADSLSDELFDYKTYIAVKSF the figure was -0.645 ± 0.27; with SLYVYISRFMTLMGCLTVNH, 0.575 ± 0.35.
Take FRLSWHSYNSMWINTVTSPQ: the amyloid nucleation score was determined as 2.75 ± 0.078.
Next, TLCIVNIGSFVEDEKGDN: 7.19 ± 0.073; YMQGAFFQQTPSNLWQEGHY: -0.74 ± 0.84; IVFFWMMLVGLNRLGVNRVG: -0.846 ± 1.7.
With FMRMFVIIKHHVEVRRPRFI the figure was 0.413 ± 0.7; with QVVFE, 0.1 ± 0.68; with TSRGSGSVWLDFFSHHGKIG, -0.218 ± 1.4.
Regarding SAGYYPVVLCALILEAEYQD, the amyloid nucleation score is -0.541 ± 0.61.
Next, KCLTFHVSNVFITANPLCLL: 5.936 ± 0.054.
Next, MPIEYG: -0.27 ± 0.71; NTCEGGKCSYKVVSFLYLKY: 0.497 ± 0.5; EDRDTLKGM: 0.806 ± 0.57.
Next, LDVFICTADHTVRYLHHTAV: 1.08 ± 0.66.
Substance LRWYTQGMVLLEDRPCRCYN returned an amyloid nucleation score of -1.01 ± 0.41.
Next, SVGYH: 0.699 ± 0.59; LYYYEQH: -0.388 ± 0.54.
GGRLTRQRIVSVLLYVGVAG came in with an amyloid nucleation score of 0.077 ± 0.69.
As to WFAVWRIRCVRSDVANWMLS, the amyloid nucleation score turned out to be 0.283 ± 0.37.
Consider MFCIDSRAVAGMRDGRINLG, for which the amyloid nucleation score turned out to be 1.64 ± 0.21.
Next, GYGNRNLALARGMLGQIL: 0.215 ± 0.46.
With SPFSGVL the figure was 0.589 ± 0.25; with AWLSGVNVVSKSQGCFLWYG, 0.551 ± 0.56; with ADRWVLSFMEPCAT, “inactive”.
With RIDARILLITCL the figure was -1.51 ± 2.4; with TRTAGRSVCPVIQLMSWAAY, 0.277 ± 0.44; with LNTQVRVGDKVCLRIFARLL, 0.944 ± 0.9.
Substance SLEWLESCFSDAHIHTAH returned an amyloid nucleation score of -0.733 ± 1.9.
Next, IPKVIGWFTVVTTGVVVDIS: 1.27 ± 0.7; TCSLNLYLDSDVFLCLCCLW: 5.65 ± 0.074; IRYQFVWSMSLCGLEMHWSS: 2.55 ± 0.21.
With TFRQVPAQFNMASRDKNSTI the entry was “inactive”.
With PWADVR the figure was 0.721 ± 0.38; with DLYQCVHPMFHVWVCVTAGW, “inactive”; with FFKNLCSRGCLCSYGMVQTV, 0.396 ± 0.58.
SLGVSDI gave an amyloid nucleation score of -1.16 ± 0.41.
With ADPLMI the figure was -0.163 ± 0.28.
With LTNTGEYQLVSTIPQGRHVV the figure was -0.222 ± 0.36; with VPTCMRVYIRGNSHNGMLAA, 1.1 ± 0.4.
With IFTVSRGPVTLCWDWWETHA the figure was 0.196 ± 0.56; with SCLIFVSHSTEGYYSTPTFP, 2.26 ± 0.26.
YYISRVVVDGIRKYWGYLES had an amyloid nucleation score of -0.866 ± 1.9.
With LNRLSFLV the figure was 0.065 ± 1.2.
With VREYMTFQDMYLSGVSTVTL the figure was 1.08 ± 0.61; with MYSLFMSKVRHFCVT, 2.09 ± 0.6.
DAGNVLARLDGFNAG yielded an amyloid nucleation score of -0.121 ± 0.49.
Next, LKSLLNSSGVTLGEVLRMGV: -0.091 ± 0.45; SFNNFEFILVIDYKRKSYMR: -0.222 ± 0.36; KNPLVIKKRF: 0.204 ± 0.59.
Next, KKPCVTGYRKNRWEELEP: -0.393 ± 0.42.
Next, VLGLLITGDRLS: 0.1 ± 1.4.
In turn, SLFKRILYHVSGFRYCCTSV came in with an amyloid nucleation score of -1.01 ± 1.
With QVDHKIWKGTVYDLSMGMM the figure was -0.35 ± 0.46; with DKTECDQCIKSG, -0.691 ± 0.42.
With AFGVYRVCLVWVHL the figure was 0.232 ± 0.49; with VNWRGNSRVGIRNRFFCHSH, -0.28 ± 0.72; with TVRCG, 0.014 ± 0.97.
The substance CYKVFPVVSYKVGGASLTAR gave an amyloid nucleation score of 0.105 ± 0.31.
With LKNSRYSKLFIESMTWWLVY the figure was 0.087 ± 0.16; with TNRVHLWFVL, 7.57 ± 0.078; with GSDCSKAAFDPPFRSYDNAT, 0.429 ± 0.33.
Next, GSTNERYAKNGTS: 0.32 ± 0.68; AERPSLYWLKLRKRRITVV: 0.46 ± 1.2; AFYWLHLDGFLQLNQQMSVA: 0.992 ± 0.7.
In turn, VWRADMCSHS returned an amyloid nucleation score of -0.17 ± 0.53.
Next, HVLLYCANFVIYTDVA: 2.45 ± 0.26; QGILCFSIHSSNSMTGNTVF: 0.038 ± 0.25; CFSHVWVDLIDFYVRFVLFR: -0.209 ± 0.69.
With IMKRCCGESMMPDAGWSGSA the figure was -0.401 ± 1; with LPAGSDVCLY, 3.23 ± 0.13; with LHMLKMICKVVNRVSYS, -0.098 ± 0.23.
For YENSFGGHYSDESNTRRWEF, the amyloid nucleation score turned out to be 1.44 ± 0.36.
Take ESRCRTLKIVLCCGFLSDWP: the amyloid nucleation score result is “inactive”.
As for DLTGKVRYQSVLPFVASPSM, the amyloid nucleation score was found to be 0.11 ± 0.62.
The substance HDIAIMSSVGFSTAHDICSE gave an amyloid nucleation score of 0.26 ± 0.99.
Substance LFNWVTSCSGTINGWKIKRH yielded an amyloid nucleation score of 3.08 ± 0.12.
With PNIKLSDRLGIIRREIWMVV the figure was 0.54 ± 0.39; with CEGMVIMVGRVLRTSYLYNL, 0.001 ± 0.61.

For the origin of these results see the supplement of paper PMC12042874.
